Positions count from the first letter of the chain named.
B1: clone EBI-51-11 rabbit anti-RANKL antibody (antibody, V domains shown)
VH: QSVEESGGRLITPGTPLTLTCTVSGFSLSTDVVSWVRQAPGTGLEWIGYTWSGGSTYYAIWAKGRFTISKTSSTTVDLKITSPTTEDTATYFCARGFNPFDPWGPGTLVTVSS
VL: DMTQTPASVSEPVGGTVTIKCQASQNIGSNLAWYQQKPGQRPKLLIYRASTLASGVSSRFKGSGSGTQFTLTISDLECADAATYYCQQGYSAGNVDKHVFGGGTEVVVK
B2: clone EBI-51-1 rabbit anti-RANKL antibody (antibody, V domains shown)
VH: QEQLEESGGGLVKPEGSLTLTCTASGFDLSTYYYMCWVRQAPGKGLEWIACIYTGRASTYYATWAKGRFTISKTSSTTVTLQMTSLTAADTATFFCASKAGDIWYYGMDLWGPGTLVTVSS
VL: B1 VL with K97N, H98N, V99T
B3: clone EBI-51-2 rabbit anti-RANKL antibody (antibody, V domains shown)
VH: B1 VH with V3L, I11V, V23A, S27T, L28I, V33I, T42K, I60N, I68L, T85I
VL: DMIQTPASVSEPVGGTVTIVCQASQNIGSNFAWYQQKPGQPPKLLIYRASTLASGVSSRFKGSGFGTQFTLTISDLECADAATYYCQQGYSAGNVDNNFGGGTEVVVK
B4: clone EBI-51-4 rabbit anti-RANKL antibody (antibody, V domains shown)
VH: QSVEESGGRLVKPGESLTLTCTASGFSLSSDVISWVRQAPGKGLEWIGYGWSGGPTYYANWAKGRFTISKTSSTTVDLKITSPTTEDTATYFCARGFNPFDPWGPGTLVTVSS
VL: B3 VL with I3T, V20K, F31L, P41R, F65S, N98S
B5: clone EBI-51-23 rabbit anti-RANKL antibody (antibody, V domains shown)
VH: QSVKESEGGLFKPTDTLTLTCTVSGFSLSIYEISWVRQAPGKELEWIGYIGVGGVTYYANWAKSRSTITRNTNQKMVALKMTSLTAADTATYFCARGYNPFDLWGPGTLVTVSS
VL: DMTQTPASVEVAVGGTVTINCQASQNIGSNLAWYQQKPGQPPKLLIYKASTLASGVPSRLKGSGSGTEFTLTISGVQCDDAATYYCQQGYTTGNVDNPFGGGTEVVVK
B6: clone 327 rabbit anti-RANKL antibody (antibody, V domains shown)
VH: QSLEESGGRLVTPGTPLTLTCTVSGFSLSKYEINWVRQAPGKGLEWIGYIDVGSGTWYASWAKGRFTISKTSTTVALRITSPTTEDTATYFCSRQYNPMDLWGPGTLVTVSS
VL: B5 VL with V11A, N20K, P41R, K48S, L60F, E68Q, T91S, T92V, D96N, P98A
B7: clone 383 rabbit anti-RANKL antibody (antibody, V domains shown)
VH: QSLEESGGDLVKPGASLTLTCTASGFSFSRYVCWVRQAPGKGLEWIGCIAAGSSGYTYYASWAKGRLTISKTSSTTLTLQMTSLTVADTATYFCARSGDSYVGYFNLWGPGTLVTVSS
VL: IVMTQTPASVEAAVGGTVTIKCQASQNIYNYLAWYQQQPGQPPKLLIYSASNLASGVSSRFKGSGSGTEFTLTISDLECGDAATYYCQSYYDSSRISYGSAFGGGTEVVVK
B8: clone 210 rabbit anti-RANKL antibody (antibody, V domains shown)
VH: QSVKESGGGLVTPGGTLTLTCTASGFSLSNNAMSWVRQAPGKGLEWIGYIYPGGSPYYANWAKGRFTISRTSTTVDLKMTSLTTEDTATYFCARHVSDGGWYLYIWGPGTLVTVSL
VL: DMIQTPASVEVAVGGTVTINCQASQSIGSNLAWYQQKPGQPPKLLIYGASTLASGVPSRFKGSGSGTQFTFTISDVECTAAATYYCQQAYSISNVDNAFGGGTEVVVK
B9: clone 174 rabbit anti-RANKL antibody (antibody, V domains shown)
VH: QEQLQESGGGLITPGGTLTLTCTASGFSFNRNALSWVRQAPGKGLEWIGYIYSGGSPYYANWAKGRFNVSRTSTTVDLRMTSLTTEDTATYFCARHVSGGGWYLDIWGPGTLVTVSL
VL: B8 VL with S26N, A49T, P57S, S65F, A80D
B10: clone 191 rabbit anti-RANKL antibody (antibody, V domains shown)
VH: QSVEESGGRLVTPGTPLTLTCTVSGFSLYTNLINWVRQAPGKGLEWIGYINYGASAYYANWAKGRFTISQTSSTTVDLKMTSLTIEDTATYFCARGYGNDWDRLDLWGQGTLVTVSS
VL: IVMTQTPSPVSGAVGGTVTINCQASQSIGSNLAWYQQKPGQPPKLLIYSASILASGAPSRVSGSGYGTEFTLTISGVQCADAATYYCQQGYTTNADNIFGGGTEVVVE
B11: clone 193 rabbit anti-RANKL antibody (antibody, V domains shown)
VH: QSVEESGGRLVTPGTPLTLTCTFSGFSLSNNAINWVRQAPGKGLEWIGYTWSGGGTYCASWAKGRFTISKTSSTTVDLKMTSLTTEDTATYFCARAYDSEWDRLDLWGQGTLVTVSS
VL: VMTQTPASVSGPVGGTVTIKCQASQSIGSNLGWYQQKPGQPPKLLIFSASNLESGVPSRFKGSGSGTQFTLTISDLECDDAATYYCQQGYTTNNVLNAFAGGTEVVVK
B12: clone 416 rabbit anti-RANKL antibody (antibody, V domains shown)
VH: B8 VH with A23V, N30R, A39T, P52S, G54S, Y104D, T113A
VL: B8 VL with A12V, I19F, S26N, G48S, A80D
B13: clone 415 rabbit anti-RANKL antibody (antibody, V domains shown)
VH: B6 VH with L3V, T15G, P16S, K30N, I33M, A76D, R78K
VL: B5 VL with N20K, P41R, K48S, L60F, E68Q, T91S, T92V, D96N, P98A
B14: clone 411 rabbit anti-RANKL antibody (antibody, V domains shown)
VH: QSVEESGGRLVTPGTPLTLTCTVSGFSLSSGVVSWVRQAPGKGLEWIGYAWSGGPTYYANWAKGRFTISKSSTTVDLKITSPTTADTATYFCARGYNGMDPWGPGTLVTVSS
VL: DMTQTPASVEVAVGGTVTIKCQASQNIGSNLAWYQQKPGQPPKLLIYKASTLASGVPSRFRGSGSGTEFTLAISDLECADAATYYCQQGYTTKDVVNPFGGGTEVVVK
B15: clone 420 rabbit anti-RANKL antibody (antibody, V domains shown)
VH: QEQLKESGGGLVTPGGILTLTCTASGFSLRSNAMSWVRQAPGKGLEWIGYIYPGGAPHYASWAKGRFTISRNSTTVDLKMTSLTTEDTATYFCARHVSGGGWYLDIWGPGTLVTVSL
VL: B8 VL with A12G, S26N, L44F, P57S, Q68R, A80D, I92V, S93G
B16: clone 447 rabbit anti-RANKL antibody (antibody, V domains shown)
VH: B15 VH
VL: B8 VL with A12G, S26N, L44F, P57S, Q68R, A80D, I92V, S93G

biological target: T1, RANKL expressed on the surface of 293 cells (UniProt O14788 1-317, limits assumed); experiment: flow cytometry (MFI) on RANKL-transfected 293 cells
T1 construct: whole, on cells; also called RANKL-transfected 293 cells; cells expressing RANKL
T1 sequence (looked up): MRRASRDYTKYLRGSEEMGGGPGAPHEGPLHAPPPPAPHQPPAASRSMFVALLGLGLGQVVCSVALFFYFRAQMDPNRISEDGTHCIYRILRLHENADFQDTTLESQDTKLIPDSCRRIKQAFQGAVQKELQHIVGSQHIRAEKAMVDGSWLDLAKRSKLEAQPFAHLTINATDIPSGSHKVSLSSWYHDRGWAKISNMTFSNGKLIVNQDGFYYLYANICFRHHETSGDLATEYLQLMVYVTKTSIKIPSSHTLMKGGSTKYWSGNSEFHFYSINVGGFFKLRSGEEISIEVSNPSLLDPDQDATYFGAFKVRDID

Row | Binder | EC50 [µg/mL]
1 | B1 | 0.0757
2 | B2 | 0.0867
3 | B3 | 0.0621
4 | B4 | 0.078
5 | B5 | 0.156

biological target: T2, human RANKL protein (human, UniProt O14788 140-317, limits assumed); experiment: cell-based or functional assay
T2 sequence (looked up): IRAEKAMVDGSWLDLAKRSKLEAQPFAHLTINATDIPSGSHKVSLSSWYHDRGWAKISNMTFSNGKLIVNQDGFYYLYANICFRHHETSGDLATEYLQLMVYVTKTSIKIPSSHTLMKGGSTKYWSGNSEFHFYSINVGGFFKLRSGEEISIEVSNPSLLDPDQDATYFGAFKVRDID

Row | Binder | IC50 in a RAW cell assay (TRAP activity, OD 405 nM) [µg/mL]
6 | B6 | 0.0075
7 | B7 | 0.002

biological target: T2, human RANKL protein; experiment: competition ELISA: RANKL (0.5 ug/ml) pre-incubated with the antibody, then binding to coated human RANK (8 ug/ml) detected; blocked partner RANK

Row | Binder | IC50 [µg/mL]
8 | B8 | 0.071
9 | B9 | 0.0762
10 | B10 | 0.0823
11 | B11 | 0.0665

biological target: T1, RANKL expressed on the surface of 293 …; experiment: flow cytometry (MFI) on RANKL-transfected 293 cells; remark: another data set of the same source

Row | Binder | EC50 [µg/mL]
12 | B12 | 0.203
13 | B13 | 0.16
14 | B14 | 0.108
15 | B15 | 0.215
16 | B16 | 0.0617

biological target: T2, human RANKL protein; experiment: competition ELISA: RANKL (0.5 ug/ml) pre-incubated with the antibody, then binding to coated human RANK (8 ug/ml) detected; blocked partner RANK; remark: another data set of the same source

Row | Binder | IC50 [µg/mL]
17 | B1 | 0.0656
18 | B2 | 0.0753
19 | B3 | 0.0389
20 | B4 | 0.0388
21 | B5 | 0.0482

biological target: T2, human RANKL protein; experiment: as above; remark: another data set of the same source

Row | Binder | IC50 [µg/mL]
22 | B6 | 0.0416
23 | B7 | 0.0621

biological target: T1, RANKL expressed on the surface of 293 …; experiment: flow cytometry (MFI) on RANKL-transfected 293 cells; remark: another data set of the same source

Row | Binder | EC50 [µg/mL]
24 | B8 | 0.292
25 | B9 | 0.13
26 | B10 | 0.174
27 | B11 | 0.135

biological target: T2, human RANKL protein; experiment: competition ELISA: RANKL (0.5 ug/ml) pre-incubated with the antibody, then binding to coated human RANK (8 ug/ml) detected; blocked partner RANK; remark: another data set of the same source

Row | Binder | IC50 [µg/mL]
28 | B12 | 0.138
29 | B13 | 0.0545
30 | B14 | 0.0771
31 | B15 | 0.0754
32 | B16 | 0.0537

biological target: T1, RANKL expressed on the surface of 293 …; experiment: flow cytometry (MFI) on RANKL-transfected 293 cells; remark: another data set of the same source

Row | Binder | EC50 [µg/mL]
33 | B6 | 0.0871
34 | B7 | 0.15

biological target: T2, human RANKL protein; experiment: surface plasmon resonance

Row | Binder | Kd [nM] | koff [s⁻¹] | kon [M⁻¹ s⁻¹]
35 | B6 | 2.13 | 0.0003 | 141000

Source: US20160032001A1 (APEXIGEN, published 2016)
